Results on four molecules are retold here after article PMC3413117 (Nucleic Acids Research, 2012).

The series “SEC” concerns the molecule itself. Briefly: SEC.
A further series concerns the target T1, LiBRCA2-B1 (Leishmania infantum, UniProt A4HYJ9 1-122).
T1 sequence: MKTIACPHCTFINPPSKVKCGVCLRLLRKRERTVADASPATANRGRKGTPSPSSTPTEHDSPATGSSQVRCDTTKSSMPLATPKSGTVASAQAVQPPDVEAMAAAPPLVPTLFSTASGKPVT
Briefly: EMSA.

The next series deals with T2, LiBRCA2 (Leishmania infantum, UniProt A4HYJ9 1-1165).
T2 sequence: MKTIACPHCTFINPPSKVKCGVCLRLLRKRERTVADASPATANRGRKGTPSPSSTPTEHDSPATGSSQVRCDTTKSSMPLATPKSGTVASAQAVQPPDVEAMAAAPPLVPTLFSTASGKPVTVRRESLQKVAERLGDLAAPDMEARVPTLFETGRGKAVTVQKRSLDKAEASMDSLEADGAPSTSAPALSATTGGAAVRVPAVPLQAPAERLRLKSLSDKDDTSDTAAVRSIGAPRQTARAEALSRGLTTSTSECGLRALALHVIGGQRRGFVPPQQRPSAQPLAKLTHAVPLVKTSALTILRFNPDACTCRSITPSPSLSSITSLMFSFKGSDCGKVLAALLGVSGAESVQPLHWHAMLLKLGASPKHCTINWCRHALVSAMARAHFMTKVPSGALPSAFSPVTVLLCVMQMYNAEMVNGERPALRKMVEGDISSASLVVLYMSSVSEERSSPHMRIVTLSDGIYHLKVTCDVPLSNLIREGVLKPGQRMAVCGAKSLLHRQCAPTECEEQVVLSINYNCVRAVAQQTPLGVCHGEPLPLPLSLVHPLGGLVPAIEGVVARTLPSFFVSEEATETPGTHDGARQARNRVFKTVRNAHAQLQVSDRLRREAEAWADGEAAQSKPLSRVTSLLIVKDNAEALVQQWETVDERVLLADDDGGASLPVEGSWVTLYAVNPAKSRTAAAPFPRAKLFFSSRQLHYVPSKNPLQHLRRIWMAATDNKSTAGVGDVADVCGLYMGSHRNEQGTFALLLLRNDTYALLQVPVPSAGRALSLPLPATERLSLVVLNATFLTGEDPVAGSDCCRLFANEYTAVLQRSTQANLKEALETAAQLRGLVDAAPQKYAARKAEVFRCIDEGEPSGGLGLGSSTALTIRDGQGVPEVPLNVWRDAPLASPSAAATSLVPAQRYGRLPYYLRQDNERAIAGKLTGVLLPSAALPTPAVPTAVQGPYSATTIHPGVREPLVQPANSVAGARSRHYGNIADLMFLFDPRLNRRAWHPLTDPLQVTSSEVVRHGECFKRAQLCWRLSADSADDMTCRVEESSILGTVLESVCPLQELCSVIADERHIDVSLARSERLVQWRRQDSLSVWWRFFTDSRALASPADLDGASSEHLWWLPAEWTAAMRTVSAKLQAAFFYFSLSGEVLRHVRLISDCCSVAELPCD
Briefly: EMSA.

B1: Leishmania infantum RAD51, purified (GST tag cleaved) (natural protein)
chain: MQTRSKAKGRRGRPSARPSEEVEVVESQPQEALQNEEQEPRQQQQQSTDMAEPNASGFRVIQILENYGVASSDIKKLMECGFYTVESAAYAPKKAILAVKGISENKAEKIMAECAKLVPMGFTSAVAYHEARKEIIMVTTGSREVDKLLGGGIETGSITELFGEFRTGKTQLCHTLCVTCQLPISQGGAEGMALYIDTEGTFRPERLVAVAERYKLDPEDVLANVACARAFNTDHQQQLLLQASAMMAENRFALIVVDSATALYRTDYSGRNELAARQMHLGKFLRSLHNLAEEYGVAVVVTNQVVANVDGSAQMFQADSKKPIGGHIMAHASTTRLSLRKGRGEQRIIKVYDSPCLAEAEAIFGIYDDGVGDARD
With B1, the binding result in “SEC” is “binds”.

B2: 60-mer ssDNA (JYM925) (ssDNA)
DNA: GGGTGAACCTGCAGGTGGGCAAAGATGTCCTAGCAATGTAATCGTCAAGCTTTATGCCGT
On to B2, for which the binding result with LiBRCA2-B1 is “no binding”; with LiBRCA2, “binds”.

B3: 60-mer dsDNA (JYM925/JYM945) (dsDNA)
DNA 1: B2 DNA
DNA 2: ACGGCATAAAGCTTGACGATTACATTGCTAGGACATCTTTGCCCACCTGCAGGTTCACCC
As for B3, the binding result with LiBRCA2 is “no binding”.

B4: Leishmania infantum BRCA2, purified LiBRCA2-His (GST tag cleaved) (natural protein)
chain: T2 sequence
Consider B4, for which the binding result in “SEC” is reported as “binds”.
